Experimental data taken from the supplement of paper PMC10567573.

B1: C19orf51 (parent)
chain: FAPQTGARPSETFARFCKSQESAL

Variants of: B1
Assay: protein stability index of a GFP-peptide fusion (GPS, HEK-293T) (PSI 1-6); higher = more stable
Settings: c terminus: a fixed tail appended
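Note: lentivirally expressed fusions sorted by FACS into six bins by GFP to DsRed ratio, PSI derived from sequencing read proportions per bin multiplied by bin number.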

Protein stability index of substitutions, site by site:
P9: G 2.57; K 2.47; I 2.25; Y 3.62; M 2.92; Q 2.77; N 2.23
F16: T 2.52; I 1.89; D 1.77; S 2.79; L 3.42; R 1.4
F13: R 1.94; Y 1.49; M 1.92; Q 2.12; I 1.7; S 1.41; A 1.89; C 3.95; K 2.31; T 1.82; E 1.98; V 2.92
A23: L 2.84; P 2.46; K 1.75; F 2.44; V 1.68; G 2.32; C 1.55; W 2.29
S19: R 5.04; D 2.2; H 4.27; W 1.75; C 3.45; T 1.66; E 1.1; Q 1.43; K 2.35; A 2.85
Q4: C 2.85; M 1.65; F 1.98; N 1.69; K 1.99; L 4.02; S 2.6; Y 2.21; H 2.21
S22: H 1.98; I 3.24; W 1; D 2.04; G 3.57; C 2.31; L 2.08
E11: F 3.67; L 2.27; Y 3.29; K 1.03; S 3.19; C 2.86; T 1.96; A 1.55; H 2.47; N 3.64
T12: P 1.82; M 2.29; R 2.39; D 1.99; Q 1.35; E 1.4
F1: I 2.65; Y 4.05; C 1.38; D 4.78; Q 3.77; V 3.3; G 4.63
G6: K 2.51; E 1.67; F 2.86; S 1.9; V 2.13; Q 1.36; I 2.25; T 2.51
L24: K 2.02; D 1.88; F 3.1; G 2.81; Y 3.96
C17: M 3.12; S 1.74; W 3; N 2.79; Q 1.35; H 1.2; D 1.68; Y 2.92; G 3.94
R15: L 2.84; C 3.88; F 1.72; E 2.65; Q 1.16
A2: Y 2.59; T 1.61; N 1.04; D 3.07; K 3.17
Q20: H 1.89; I 2.92; P 2.65; V 1.73; R 4.59; L 1.65; K 1.99; E 2.48; A 2.13
R8: S 2.38; W 2.52; Q 1.59
P3: A 1.05; E 2.64; I 1.72; K 2.51; L 1.5
S10: Q 1.96; T 2.25; K 2.62; N 1.72; A 2.32; F 2.11; C 2.34
K18: L 2.2; D 1.1; E 1.92; T 2.6; Y 1.99; I 2.29
T5: P 1.81; D 2.37; N 2.01; E 2.42; Y 2.78
A7: H 3.46; T 2.69; K 1.53; D 1.59; C 2.92; E 1.77
E21: K 1.85; Y 2.22; R 4.11; M 2.35; W 3.29
A14: R 1.82; V 2.17; Q 2.63; C 1.69; D 1.69; T 2.09; M 3.45
